Measurements from the nanobody polyreactivity screen of Harvey et al. (2022).

Experiment: yeast display, Sf9 membrane polyspecificity reagent, FACS + sequencing; frameworks hold sequencing errors
In short: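 In a synthetic yeast display library (Saccharomyces cerevisiae BJ5465), nanobody expression was induced with galactose for 36–48 hours. FACS gates were set low and high (top ~1%) using anti-HA fluorescence for expression and streptavidin fluorescence for binding of the Sf9 membrane reagent. Each polyreactivity label is drawn from the gate of origin.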

Sequence | polyreactivity (PSR sort gate)
QVQLVESGGGLVQAGGSLRLSCAASGLTLAYAMGWYRQPPGKEREFVAAISSSGGSTYYADSVKGRFTISRDNAKNTVYLQMNSLKPEDTAVYYCAARTNPGRYYYRFSGGSWGQGTQVTVSS | high polyreactivity
QVQLVESGGGLVQAGGSLRLSCAASGLTLDYYARGWYRQAPGKDRELVAVIRGRSGSTYYADSVKGRFTISRDNAKNTVYLQMNSLKPEDTAVYYCARVTTYGDYYWGQGTQVTVSS | high polyreactivity
QVQLVESGGGLVQAGGSLRLSCAASGLTLGSYAMGWYRLAPGKERELVAAISRRSGRTYYADSVKGRFTISRDNAKNTVYVQMNSLKPEDTAVYYCNRGYTAQVYTEFDYWGHGTQVTVSS | low polyreactivity
QVQLVESGGGLVQAGGSLRLSCAASGLTLKRYAMGWYRQAPGKERELDAAISKSGGSTYYADSVKGRFTSSRDNAKNTVYLQMNSLKPEDTPVYYCAADSYNLWDDYWGQGTQVTVSS | low polyreactivity
QVQLVESGGGLVQAGGSLRLSCAASGLTLPWYAMGWYRQAPGKERELVAAITWDGTRTYYADSVKGRFTISRDNAKNTVYLQMNSLKPEDTAVFYCNARRVRGTFYRSGVVGYSYWGHGTQVTVSS | high polyreactivity
QVQLVESGGGLVQAGGSLRLSCAASGLTLQPYAMGWYRQAPGKERELVAAITSGGSTYYADSVKGRFTISRDNAKNTVYLQMNSLKPEDTAVYYCAAVGRHYYVKFDYWGQGTQVTVSS | low polyreactivity
QVQLVESGGGLVQAGGSLRLSCAASGLTLRYYVMGWYRQAPGKERELVASITRSGGSTSYADSVKGRFTISRDNAKNTVYLQMNSLQPEDTAVYYCNRRTYVGTRASFLYYYWGQGTQVTVSA | high polyreactivity
QVQLVESGGGLVQAGGSLRLSCAASGLTLTSNAMGWYRQAPGKERELVAAINGSGGITYYADSVKGRFTISRDNAKNTVYLQMNSLKPEDTAVYYCNTVHYNLDYEYDYWGQGTQVTVSS | low polyreactivity
QVQLVESGGGLVQAGGSLRLSCAASGLTLYINAMGWYRQAPGKERELVAAIRTVGRTRYADSVKGRFTISRDNAKNTVYLQMNSLKPEDTAVYYCNARRYLRGYGYGYWGQGTQVTVSS | high polyreactivity
QVQLVESGGGLVQAGGSLRLSCAASGLTLYKNGMGWYRQAPGKERELVARITSGGRTYYADSVKGRFTISRDNAKNTVYLQMNSLKPEDTAVYYCNAVKSYASLCAGFYYWGQGTQVTVSS | high polyreactivity
QVQLVESGGGLVQAGGSLRLSCAASGLTLYRYAMGWYRQPPGKEREMVAGISWGGGSTYYADSVKGRFTISRDNAKNTVYLQMNSLKPEDTAVYYCAAGRLLYIPRYYYWGQGTQVTVSS | high polyreactivity
QVQLVESGGGLVQAGGSLRLSCAASGLTLYTYAMGWYREAPGKESELVAAISKNGGRTYYADSVKGRFTISRDNAKNTVYLQMNSLKPEDTAVYYCAARARVGTVTFDFWGQGTQVTVSS | high polyreactivity
QVQLVESGGGLVQAGGSLRLSCAASGLTSIHYMGWSRQAPGKERELVATITSSTGSTYYADSVKGRFTISRDNAKNTVYLQMNSLKPEDTAVYYCAAESFGADGPYQPSYDYWGQGTQVTVSS | low polyreactivity
QVQLVESGGGLVQAGGSLRLSCAASGLTSLGNAMGWYRQAPGKERELVAAITRTGTSTYYADSVKGRFTISRDNAKNTVYLQMNSLKPEDTAVYYCAALDRYSTEYKYQLYKQEYDYWGQGTQVTVSS | low polyreactivity
QVQLVESGGGLVQAGGSLRLSCAASGLTVDTYDMGWYIQAPGKERELVAAIDWSGVSTYYADSVKGRFTISRDNAKNTVYLQKNSLKTEDTAVYYCAADLLQYDIASWDYTYDYWGQGTQVTVSS | low polyreactivity
QVQLVESGGGLVQAGGSLRLSCAASGLTYAKYVMRWYRQAPGNERELVAAISRSGGSTFYADSVKGRFTISRDNAKNTVYLQMNSLKPEDTAVYYCAAAAWDPKGSRYDYWGQGTQVTVSS | low polyreactivity
QVQLVESGGGLVQAGGSLRLSCAASGLTYSNAMGWYRQAPGKERELVAAISWRGGRTYYADSVKGRFTISRDNAKNTVYLQMNSLKPEDTAVYYCAKYAHGHKWYGYWGQGTQVTVSS | low polyreactivity
QVQLVESGGGLVQAGGSLRLSCAASGLTYYYYAKGWYRQAPGKERDFVAAISRSGGTTYYADSVKGRFTISRDNAKNTDYLQMNSLKPEDTAVYYCNAQWWRYRPSQVIFDYWGQGTQVNVSS | high polyreactivity
QVQLVESGGGLVQAGGSLRLSCAASGMGWYRQAPGKERELVAAITSTDGSTYYADSVKGRFTISRDNAKNTVYLQMNSLTPEDTAVYYCAVEPYLWPVFSDDDYWGQGTQVTVSS | low polyreactivity
QVQLVESGGGLVQAGGSLRLSCAASGNIFARYAMGWYRQAPGKERELVAAISRSGGSTYYADSVKGRFTISRDNAKNTVYLQMNSLKPEDTAVYYCNAKSYGVLYWFAYDYWGQGTQVTVSS | high polyreactivity
QVQLVESGGGLVQAGGSLRLSCAASGNIFAVNAMGWSRQAPGKERELVARIRYSTGRTYYADSVKGRFTISRDNAKNTVYLQMNSLKPEDTAVYYCATDYYTTRVPGGYDYWGHGTQVTVSS | high polyreactivity
QVQLVESGGGLVQAGGSLRLSCAASGNIFAVYAMGWYRQAPGKERELVAAISYSSTRTYYADSVKGRFRISRDNAKNTVYLQMNSLKPEDTAVYYCAVETWWDYDYWGQGTQVTVSS | high polyreactivity

Sequence | polyreactivity (PSR sort gate)
QVQLVESGGGLVQAGGSLRLSCAASGNIFAWSAMGWYRQAPGKERELVARITVGSTYYADSVKGRFTISRDNAKNTVYLQMNSLKPEDTAVYYCNKDSGEDDRWPYDYWGQGTQVTVSS | low polyreactivity
QVQLVESGGGLVQAGGSLRLSCAASGNIFAYYAMGWYRQAPGKERELVAAITDSGGNTFYADSVKGRFTISRDNAKNTVYLQMNSLKPEDTAVYYCAADPDGWGFVYPRYDYWGQGTQVTVSS | low polyreactivity
QVQLVESGGGLVQAGGSLRLSCAASGNIFAYYAMGWYRQAPGKERELVAGISRRGGNTYYADSVKGRFTISRDNAKNTVYLQMNSLKPEDTAVYYCAAKTYSGQRFDYWGQGTQVTVSS | high polyreactivity
QVQLVESGGGLVQAGGSLRLSCAASGNIFDTYVMGWYRQAPGKERELVAAITSDGGTYYADSVKGRFTIARDNAKNTVYLQMNSLKPEDTAVYYCAADTYYYPIQDYWGQGTQVTVSS | low polyreactivity
QVQLVESGGGLVQAGGSLRLSCAASGNIFETNAMGWYRQAPGKERELVAAITRSGGSTYYADSVKGRFTISRDNAKNTVYLQMNSLKPEDTAVYYCAYYPYGYDYWGQGTQVTVSS | high polyreactivity
QVQLVESGGGLVQAGGSLRLSCAASGNIFETNAMGWYRQAPVKERELVAAISASGGSTYYADSVKGRFTISRDNAKNNVYLQMNSLKPEDTAVYYCNDRVDSYYGDAFDYWGQGTQVTVSS | high polyreactivity
QVQLVESGGGLVQAGGSLRLSCAASGNIFFGYAMGWYRQAPGKEREFVASITKIGGSTYYADSVQGRFTISRDNAKNTVYLQMNSLKPEHTAVYYCAKTILYDCDYWGQGTQVTVSS | low polyreactivity
QVQLVESGGGLVQAGGSLRLSCAASGNIFGHYAMGWYRQAPGKERELVAAISSRGGRTYYADSVKGRFTISRDNAKNTVYLQMNSLKPEDTAVYYCAHKTRQKFGYWGQGTQVTVSS | high polyreactivity
QVQLVESGGGLVQAGGSLRLSCAASGNIFGRYAMGWYRQAPGKERELVAAISSGDITYYADSVKGRFTISRDNAKNTVYLQMNSLKPEDTAVYYCAADSYWSVVYIKYDYWGQGTQVTVSS | low polyreactivity
QVQLVESGGGLVQAGGSLRLSCAASGNIFGWYAMGWYRQAPGKERELVAAISSGGRTNYADSVKGRFTISRDNAKNTVYLQMNSLKPEDTAVYYCAVGLHKRPPPPRFRQYNYWGQGTQVTVSS | low polyreactivity
QVQLVESGGGLVQAGGSLRLSCAASGNIFHDNAMGWYRQAPGKERELVAAISDSGGSTYYADSVKGRFTISRDTAKNTVYLQMNSLKPEDTAVYYCDSGRTYYAPYQWWYDYWGQGTQVTVSS | high polyreactivity
QVQLVESGGGLVQAGGSLRLSCAASGNIFIRYAMGWYRQAPGKERELVAAISQSGGGTSYADSVKGRFRISRDNAKNTVYLQMNSLKPEDTAVSYCNVEKVGHFNSYGYDYWGQGTQVTVSS | low polyreactivity
QVQLVESGGGLVQAGGSLRLSCAASGNIFKQYTMGWYRQAPGKERELVAAIRSRGGSTYYADSVKGRLTISRDNAKNTVYLQMNSLKPEDTAVYYCAKVLGRTTLRMDYWGQGPQVTVSS | high polyreactivity
QVQLVESGGGLVQAGGSLRLSCAASGNIFLSYAMGWYRQAPGKERDLVAGISASGGRTYYADSVKGRFTISRDNAKNTVYFQMNSLKPEDTALYYCNAGWGVVIRRYPTYDYWGQGTQVTVSS | high polyreactivity
QVQLVESGGGLVQAGGSLRLSCAASGNIFLYYAMGWYRQAPGKERELVADIDSSGASTYYADSVKGRFTISRDNAKNTVYLQMNSLKPEDTAVYNCAARAERVREYNYWGQGTQVTVSS | low polyreactivity
QVQLVESGGGLVQAGGSLRLSCAASGNIFNEYARGWYSQAPGKESELVAAITWSAGSTYYADSVKGRFTISRDNAKNTVYLQMNSVKPEDTGVYYCNTQEKANTQHYYWGQGTQVTVSS | low polyreactivity
QVQLVESGGGLVQAGGSLRLSCAASGNIFPPNTMGWDRQAPGKDRELVAAISSRGSRTYYADSVKGRFTISRDNAKNTVYLQMNSLKPEDTAVYYCAAQQWQGGYLYDYWGQGTQVTVSS | high polyreactivity
QVQLVESGGGLVQAGGSLRLSCAASGNIFQGNAMGWYRQAPGKERELVAAITSDGSTYADSVKGRFTISRDNAKNTVYLQLNSLKPEDTAVYYCNADGITSLPVPALDYWGQGTQATVSS | low polyreactivity
QVQLVESGGGLVQAGGSLRLSCAASGNIFQGNAMGWYRQAPGKERELVAAITSDGSTYADSVKGRFTISRDNAKNTVYLQMNSLKPEETAVYYCNADCITSLPVPALDYWGQGTQVTVSS | low polyreactivity
QVQLVESGGGLVQAGGSLRLSCAASGNIFQRYAMGWYRQAPGKVRELVAAISGNGGNSFYADSVKGRFTISRDNAKYTVYLQMNSLKPEDTAVYYCNTVYVVYGFDYWGQGTQVTVSS | high polyreactivity
QVQLVESGGGLVQAGGSLRLSCAASGNIFRIYAMGWYRQAPGKERALVAAITSRGAITNYADSVKGRFTISRDYAKNTVYLQMISLKPEDTAVYYCAASYRRLTGVGADEYWGQGTQVTVSS | high polyreactivity
